Reference: the nanobody polyreactivity screen of Harvey et al. (2022)

Assay: yeast display, Sf9 membrane polyspecificity reagent, FACS + sequencing; frameworks hold sequencing errors
Summary of the method: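 Sorting gates, low and high (top ~1%), were placed on anti-HA fluorescence to track expression and on streptavidin fluorescence to track reagent binding. A clone's polyreactivity label is taken from the gate it came out of. The reagent was 10% biotinylated, detergent-solubilized Sf9 membrane, applied for 1 hour at 4 °C to galactose-induced yeast display cells.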
In the case of “QVQLVESGGGLVQAGGSLRLSCAASGSIFDFYAMGWYRQAPGKERELVATITASGGSTYYADSVKGRFTISRDNAKNTVYLQMNSLKPEDTAVSYCNADSVYWGQGTQVTVSS”, the “polyreactivity (PSR sort gate)” value is reported as “low polyreactivity”.
With “QVQLVESGGGLVQAGGSLRLSCAASGITFGYNAMGWYIQAPGKERELVASISYSGDSTYYADSVKGRFTISRDNAKNTVYLLMNSLKPEDTAVYYCNVRNRPGGEINDYDYWGQGTQVTVSS” the “polyreactivity (PSR sort gate)” value was “low polyreactivity”.
In the case of “QVQLVESGGGLVQAGGSLRLSCAASGNTCYQYAMGWYRQAPGKERELVAAISSSGGSTYYADSVKGRFTISRDNAQNTVYLQMNSLKTEDTAVYYCATDKWYGYYYWGQGTQVTVSS”, the “polyreactivity (PSR sort gate)” value is reported as “low polyreactivity”.
With “QVQLVESGGGLVQAGGSLRLSCAASGITFGDNARGWYRQAPGKERELVAAISSGGSTDYADSVKGRFTISRDNAKNTVYLQMNSLKPEDTAVYYCAVDWVSVPEYDYWGQGTQVTVSS” the “polyreactivity (PSR sort gate)” value was “low polyreactivity”.
In the case of “QVQLVESCGGLVQAGGSLRLSCAASGYIFVYNAMGWYRQAHGKERELVAAISTTGGRTYYADSVKGRFTISRDNAKNTVYLQMNSLKPEDTAVYYCAARAYYARSLFGYWGQGTQVNVSS”, the “polyreactivity (PSR sort gate)” value is reported as “high polyreactivity”.
In the case of “QVQLVESGGGLVQAGGSLRLSCAASGFIFLDYAMGWYRQAPGKERELVAAISRSGGSTYYADSVKGRFTISRDYAKNTVYLQMNSLKPEDTAVYYCAAAFYGGGTWDSYWGQGTQVTVSS”, the “polyreactivity (PSR sort gate)” value is reported as “high polyreactivity”.
For “QVQLVESGGGLVQAGGSLRLSCAASGFTFHYYDMGWYRQAPGKERELVATISQSGTSTYYADSVKGRFTISRDNAKNSVYLQMHSLKPEDTAVYYCAADYIGYWYGYYWYEYWGQGTQVTVSS”, the “polyreactivity (PSR sort gate)” value was “low polyreactivity”.
In the case of “QVQLVESGGGLVQAGGSIRLSCAASGSLFEPYFMGWYRQAPGKERELVAAIRQTGGSTYYADSVKGRFTISRDTAKNTVYLQMNSLKPEDTAVYYCAKDSQTARDFDYWGQGTQGTVSS”, the “polyreactivity (PSR sort gate)” value is reported as “low polyreactivity”.
For “QVQLVESGGGLVQAGGSLRLSCAASGSTFRYYAMGWYRQAPGKEREFVAAISWSGSSTYYADSVKGRFTISRDNAKNTVYLQMNSLKPEDTAVYYCAARYRYRSSSYDYWGQGTQVTVSS”, the “polyreactivity (PSR sort gate)” value was “high polyreactivity”.
With “QVQLVESGGGLVQAGGSLRLSCAASGFTISANTMGCYSQAPGKERELGATISGGSSTNYADSVKGRFTISRDNAKNTVYLQMNSLKPDDTAVYYCAKDGGLRKFDYWGQGTQVTVSS” the “polyreactivity (PSR sort gate)” value was “high polyreactivity”.
In the case of “QVQLVESGAGLVQAGGSLRLSCAASGSIFDVNAMGWYRQAPGKERELVAAISQRGTRTYYADSVKGRFTISRDNAKNTVYLQMNRLKPEDTAVYYFNRGGWRKYDSWGQGTQVTVSS”, the “polyreactivity (PSR sort gate)” value is reported as “high polyreactivity”.
With “QVQLVESGGGLVQAGGSLRLSCAASGRTFGNYAMGWYRQAPGKERELVASITYTVGNTYYADSVKGRFTISRDNAKNTVYLQMNSLKPEDTAVYYCAADGFYLQFYHYDYWGQGTQVTVSS” the “polyreactivity (PSR sort gate)” value was “low polyreactivity”.
With “QVQLVESGGGLVQAGGSHRLSCAASGSIFYDNAMGWYRQAPGKERELVAVITVSGDSTYYADSVKGRFTISRDNAKNTVYLQMNSLKPEDTAVYYCNTDAISGSHFWRYITFGYLDDYWGQGTQVTVSS” the “polyreactivity (PSR sort gate)” value was “low polyreactivity”.
For “QVQLVESGGGLVQAGGSLRLSCAASGFTFKGNTMGWYRQAPGKERELVANITRGGTTYYADSVKGRFTISRDNAKNTVYLQMNSLKPEDTAVYYCAARNWPSRGYNYWGQGTQVTVSS”, the “polyreactivity (PSR sort gate)” value was “high polyreactivity”.
In the case of “QVQLVESGGGLVQSGGSLRLSCAASGSTFHTYAMGWYRQAPGKERELFASIRTSGGSTNADSVKGRFTISRDNAKNTVYLQMNSLNPEDTAVYYCAAYYFYGLYDAYYYWGQGTEVTVSS”, the “polyreactivity (PSR sort gate)” value is reported as “low polyreactivity”.
For “QVQLVESGGGLVQAGGSLRLSCAASGSISLLYAMGWYRQAPGKDRELVAAISSGTDDTYYADSVKGRFTISRDNAKNTVYLQMNSLKPEDTAVYYCAADPLFKDDLWPVRVRVDYWGQGTQVTVSS”, the “polyreactivity (PSR sort gate)” value was “low polyreactivity”.
In the case of “QVQLVESGGGLVQAGGSLRLSCAASGSIFGYNAMGWYRQAPGKETELVAVITRSDGSTYYADSVKGRFTISRDNAKNTVYLQMNSLKPVDTAVYYCNAETHVYYWGVVIYEYNYWGQGTQVTVSS”, the “polyreactivity (PSR sort gate)” value is reported as “low polyreactivity”.
For “QVQLVESGGGLVQAGGSLRLSCAASGFTFGRNAIVWYRQAPGKERELVASIDWSGGSTYYADSVKGRFTISRDNAKNTVYLQMNSLKPEDTAVYYCAVGPNSVGNRSYGFDYWGQGTQVTVSS”, the “polyreactivity (PSR sort gate)” value was “low polyreactivity”.
For “QVQLVESGGGLVQAGGSLRLSCAASGSIFPSNAMGWYRQAPGKERELVAAISWSGDITYYADSVKGRFTISRDNAKNTVYLQMNSLKPEDTAVYYCAADTPIAGYWYNYWGQGTQVTVSS”, the “polyreactivity (PSR sort gate)” value was “low polyreactivity”.
With “QVQLVESGGGLVQAGGTLRLSCAASGSTFRYNAMGWYRQEPGKEWELVAAITDSGSSTYYADSVKGRFTISRDNAKNTVYLQMNSLKPEDTAVYYCAAAGSRYAWGYVYWGQGTQVTVSS” the “polyreactivity (PSR sort gate)” value was “high polyreactivity”.
In the case of “QVQLVESGGGLVHAGGRLRLSCAASGRTFVSYVMGWYRQAPGKERELVAAISGNGGRTYYADSVKGRFTISRDNAKNTVYLQMNSLKPEDTAVYYCAAELFVSYFDVLMYYWGQGTQVTVSS”, the “polyreactivity (PSR sort gate)” value is reported as “high polyreactivity”.
In the case of “QVQLVESGGGLVQAGGSLRLSCAASGVYAMGWYRQAPGKERELVAAISRRGGSTYYADSVKGRFTISRDNAKNTVYLQMNSLKPEDTAVYYCAAKRAGAEYDYWGQGTQVTVSS”, the “polyreactivity (PSR sort gate)” value is reported as “high polyreactivity”.
In the case of “QVQLVESGGVLVQAGGSLRLSCAASGFTFSLYAMGWYRQAPGKERELVASISRSGGSTYYADSVKGRFTISRDNAKNTVYLQMNSLKPEDTAVYSCAARWRPYKYDSWGQGTQVTVSS”, the “polyreactivity (PSR sort gate)” value is reported as “high polyreactivity”.
With “QVQLVESGGGLVQVGGSLRLSCAASGGIFSGNAMGWSRPAPGKERELVAGITNGGRTTYADSVKGRFTISRDNAKNTVYLQMNSLKPEDTAVYYCNVYVSAGEEDEYWGQGTQVTVSS” the “polyreactivity (PSR sort gate)” value was “low polyreactivity”.
With “QVQLVESGRGLVQAGVSLRLSCAASGFIFKGYAMGWYRQATGKERELVAAITWSGRTYYADSVKGRFTISRDNAKNTVYLKMNSLKPEDTAVFYCAVDRGRGSTYKYDYWGQGTQVNVSS” the “polyreactivity (PSR sort gate)” value was “low polyreactivity”.
In the case of “QVQLVESGGRLVQAGGSIRLSCAASGRTFYNNAMGWYRQAPGKERELVAAISSGGSTYYADSVKGRFTISRDNAKNTVYLQMNSLKPEDTAVYYCNVRRGGWGYRYYYWGQGNQVTVSS”, the “polyreactivity (PSR sort gate)” value is reported as “high polyreactivity”.
For “QVQLVESGGGLVQAGGSLRLSCAASGSTFYANAMGWYRQAPGKERELVAAISSRGGSTSYADSVKGRFTISRDNAKNTVYLQMNSLKPEDTAVYYCNKVTRYYYRGFDYWGQGTQVTVSS”, the “polyreactivity (PSR sort gate)” value was “high polyreactivity”.
In the case of “QDQLVESGGGLVQAGGSLRLSRAASGLIFYSYAMGWYRQAPGKERELVAAISSGGGRTYYADSVKGRFTISRDNAKNTVDLQMNSLKPEDTAVYYCAAYGSAAQKYPYDRPYRYGYWGQGTQVTVSS”, the “polyreactivity (PSR sort gate)” value is reported as “high polyreactivity”.
With “QVQLVESGGGLVQAGGSLRYSCAASGSTSAWYAMGWYRQAPGKERELVAAITESGGDTYYADSVKGRFTISRDNAKNTVYLQMNSLKPEDTAVYYCNARGSARKSVPYPLEYWGQGTQVTVSS” the “polyreactivity (PSR sort gate)” value was “high polyreactivity”.
In the case of “QVQLVESGGGLVQAGGSLRLSCAASGSTFAYYAMGWYRQAPGKERELVAAITSSGGSTYYADSVKGRFTISRDKAKNTVYLQMNSLKPEDTAVYYCNARYRRKSWRPFDYWGQGTQVTVSS”, the “polyreactivity (PSR sort gate)” value is reported as “high polyreactivity”.
For “QVQLVESGGGLVQAGGSLRLSCAASGRIFKGYAMGWYRQAPGKERELVAAITWRGGTTYYADSVKGRFTISRDNAKNTVYLQMTSLKPEDTAVYYCARARPTGYNYWGQGTQVTVSS”, the “polyreactivity (PSR sort gate)” value was “high polyreactivity”.
With “QVQLVESGGGLVQAGGSLRLTCAASGRTFGVNAMGWYRPAPGKERQLVAAITGGGSTYYADSVKGRFTISRDNAKNTVYLQMNSLKPDDTAVYYCNADRRRRSGGFAGWHFERNDYWGQGTQVTVSS” the “polyreactivity (PSR sort gate)” value was “low polyreactivity”.
For “QVQLVESGGGIVQAGGSLRLSCAASGRIFDNYVLGWYRQAPGKERELVAAISSGGGTYYADSVKGRFTISRDNAKNTVYLQMNSLKPEDTAVYYCAKRRVYDRSFGRYDYWGQGTQVTVSS”, the “polyreactivity (PSR sort gate)” value was “low polyreactivity”.
For “QVQLVESGGGLVQAGGSIRLSCAASGITFAWNAMGWYRQAPGKERELVAAITKRGGSTYYADSVKGRFTISRDNAKNTVYLQMNSLKPEYTAFYYCAARGYISRYDARANAVQGNYWGQGTQVTVSS”, the “polyreactivity (PSR sort gate)” value was “high polyreactivity”.
With “QVQIVESAAGLVQAGGSLRLSCAASGLTFTTYSKGWYRQAPGKERELVAAISRRGSRTYYADSVKGRFTISRDNSKNTVYLQMNSLKPEDTAVYYCNALTGSFKTYSFDYWGQGTQVTVSS” the “polyreactivity (PSR sort gate)” value was “high polyreactivity”.
With “QVQLVESGGGLVQAGGSLRLSCAASGRIFRYYAMGWYRQAPGKEREFVAAINSSGVNTYYADSVKGRFTISRDNAKNTVYLQMNSLKPEDTAVYYCAFLGMDYWGQGTQVTVSS” the “polyreactivity (PSR sort gate)” value was “high polyreactivity”.
For “QVQLVESGGGLVQAGGSLRLSCAASGFTFYHYAMGWYRQAPGKERELVAAISRSAGSTYYADSVKGRFTISRDNAKNTVYLQMNSLKPEDTAVYYCAKVLRAKNSFDYWGQGTHVTVSS”, the “polyreactivity (PSR sort gate)” value was “high polyreactivity”.
In the case of “QVQLVESGGGLVQAGGSLRLSCAASGFIFAFNAMGWYRQAPGKEREFVASITGSSDSTYYADSVKGRFTISRDNAKNTVYLQMNSLKPEDTAVYYCAADPASSYGKYSYYYWGQGTQVTVSS”, the “polyreactivity (PSR sort gate)” value is reported as “high polyreactivity”.
In the case of “QVQLVESGGGLVQAGGSLRLSCADSGSTYGGYAMGWYRQAPGKERELVAAISQSGGRTYYADSVKGRFTISRDNAKITVYFQMNSLKPEDTAVYYCAAYRTGYGRFTLDYWGQGSQVTVSS”, the “polyreactivity (PSR sort gate)” value is reported as “high polyreactivity”.
In the case of “QVQLVESGGGLVQAGGSLRLSCAASGLTFQSYAMGWYRQAPGKEMELVATIYNGSSTYYAVSVKGRFTISRDNAKNTDYLQMNSLKPEDTAVYYCAKDYYYSRNALYGHDYWGQVTQVTVSS”, the “polyreactivity (PSR sort gate)” value is reported as “low polyreactivity”.
In the case of “QVQLVESGGGLVQAGGSLRLSCAASGLTIVGNAMGWYRQAPGKERELVASISSRGGSTYYADSVKGRFTISLDNSKNTVYLQMNSLNPEDTAVYYCAAGNSYGVRLLYQIVTRYYWGQGTQVTVSS”, the “polyreactivity (PSR sort gate)” value is reported as “high polyreactivity”.
In the case of “QVQLVESGGGLVQAGGSLRLSCAASGITFGPYAMGWYRQAPGKERELVATISSSGGSTYYADSVKGRFTISRDNAKNTVYLQMNSLKPEDTAVYYCAAEYYVISSPSFYEYDYWGQGTQVTVSS”, the “polyreactivity (PSR sort gate)” value is reported as “low polyreactivity”.
In the case of “QVQLVESGGGIVQAGGSLRLSCAASGYTISYYAMGCYRQAPGKERELVASISWRGGGTYYADSVKGRFTISRDNAKNTVYLQMNSLKAEDTAVYYCNIDYYATPYGYWGQGTQVTVSS”, the “polyreactivity (PSR sort gate)” value is reported as “low polyreactivity”.
